Assay results: US20240101668A1 (WUGEN, published 2024)

T1: huCLL1-K244-Avi-Tev-His (human, UniProt Q5QGZ9 65-265)
T1 construct: extracellular domain
T1 sequence (looked up): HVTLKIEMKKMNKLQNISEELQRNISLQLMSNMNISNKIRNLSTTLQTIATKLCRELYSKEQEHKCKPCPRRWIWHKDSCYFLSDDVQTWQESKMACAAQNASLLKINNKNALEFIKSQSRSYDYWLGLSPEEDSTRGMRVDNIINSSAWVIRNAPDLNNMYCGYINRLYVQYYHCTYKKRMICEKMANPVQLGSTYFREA

T2: huCLL1-Q244-Avi-Tev-His (human, UniProt Q5QGZ9 65-265)
T2 construct: extracellular domain; also called CLL-1 K244Q
T2 sequence (looked up): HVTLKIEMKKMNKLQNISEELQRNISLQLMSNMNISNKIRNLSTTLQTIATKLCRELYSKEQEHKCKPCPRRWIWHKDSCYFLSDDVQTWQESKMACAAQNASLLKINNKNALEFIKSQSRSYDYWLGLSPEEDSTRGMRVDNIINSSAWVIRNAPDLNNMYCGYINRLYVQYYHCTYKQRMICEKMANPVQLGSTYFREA


Assays:
huCLL1-K244-Avi-Tev-His = target: T1, huCLL1-K244-Avi-Tev-His; test: BLI
huCLL1-Q244-Avi-Tev-His = target: T2, huCLL1-Q244-Avi-Tev-His; test: BLI
[1] = target: T3, huCD33-G69-Fc recombinant protein (human, UniProt P20138 18-259); test: BLI;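 further: biolayer interferometry: scFvs captured from periplasmic extracts on anti-V5-loaded streptavidin biosensors, antigen association for 2 min, buffer dissociation for 5 min, 1:1 Langmuir fit giving off-rate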
T3 construct: extracellular domain; also called CD33 R69G
T3 sequence (P20138 18-259 R69G): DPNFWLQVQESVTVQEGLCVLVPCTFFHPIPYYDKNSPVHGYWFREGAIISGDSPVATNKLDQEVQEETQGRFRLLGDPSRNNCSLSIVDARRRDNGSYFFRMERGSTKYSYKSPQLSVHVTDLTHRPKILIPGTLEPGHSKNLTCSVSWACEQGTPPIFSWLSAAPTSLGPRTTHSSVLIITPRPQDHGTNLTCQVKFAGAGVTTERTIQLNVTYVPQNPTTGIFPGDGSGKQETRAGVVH

[2] = target: T4, huCD33-R69 stably expressed on Jurkat cells (human, UniProt P20138 18-364); test: FACS on cells;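 further: fixed Jurkat lines probed with myc-tagged scFv periplasmic extracts, anti-myc PE flow cytometry, PE MFI fold binned − <2, + 2–10, ++ 10–30, +++ >30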
T4 construct: whole, on cells; >200,000 receptors per cell; also called CD33 WT; CD33^ARG69
T4 sequence (P20138 18-364): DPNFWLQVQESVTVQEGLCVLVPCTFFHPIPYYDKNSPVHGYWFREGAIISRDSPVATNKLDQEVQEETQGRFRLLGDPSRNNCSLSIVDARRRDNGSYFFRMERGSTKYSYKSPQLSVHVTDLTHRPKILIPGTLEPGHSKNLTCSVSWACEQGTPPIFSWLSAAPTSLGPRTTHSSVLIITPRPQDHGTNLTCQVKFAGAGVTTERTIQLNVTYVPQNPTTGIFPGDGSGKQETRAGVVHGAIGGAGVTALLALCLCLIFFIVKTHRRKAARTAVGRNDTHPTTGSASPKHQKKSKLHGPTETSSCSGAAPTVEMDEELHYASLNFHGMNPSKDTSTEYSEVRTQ
Description: (§1) Jurkat cells were engineered to stably express either the huCD33-R69 or huCD33-G69 variant at >200,000 receptors per cell. Parental, huCD33-R69, and huCD33-G69 Jurkat cell lines were stained with differing levels of CellTrace Violet Cell Proliferation Kit (ThermoFisher, cat. #C34557) to barcode each cell line. Barcoded Jurkat cell lines were fixed with paraformaldehyde and incubated with myc-labeled scFv periplasmic extracts and a secondary anti-myc PE-conjugated monoclonal antibody. Appropriate positive and negative controls were used. Stained cells were analyzed by flow cytometry (CytoFLEX, Beckman Coulter, Inc.) and binding was assessed by change in PE mean fluorescence intensity (MFI) of the barcoded cell populations.
(§2) Data is disclosed below in Table 16c, reporting FACS fold change over parental as (−), indicating <2 fold; (+), indicating 2-10 fold; (++), indicating 10-30 fold; and (+++), indicating >30 fold.

[3] = target: T5, huCD33-G69 stably expressed on Jurkat cells (human, UniProt P20138 18-364); test: FACS on cells;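 further: fixed Jurkat lines probed with myc-tagged scFv periplasmic extracts, anti-myc PE flow cytometry, PE MFI fold binned − <2, + 2–10, ++ 10–30, +++ >30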
T5 construct: whole, on cells; >200,000 receptors per cell; also called CD33 Mutant; CD33 R69G
T5 sequence (P20138 18-364 R69G): as the sequence (P20138 18-364) above, with R52G counted along it
Description: as §1, §2

Binder | binding result (huCLL1-K244-Avi-Tev-His) | binding result (huCLL1-Q244-Avi-Tev-His) | binding result [1] | FACS geometric mean fold change over Jurkat parental [2] [fold] | FACS geometric mean fold change over Jurkat parental [3] [fold]
Polypeptide No. 189 (scFv, V domains shown, scFv) VH: EVQLLESGGGLVQPGGSLRLSCAASGLTAGSNYMSWVRQAPGKGLEWVSAISDDGHWTDYADSVKGRFTISRDNSKNTLYLQMNSLRAEDTAVYYCVKDDGEGSGIDWGQGTLVTVSS VL: DIQMTQSPSSLSASVGDRVTITCRASQGISDYLAWYQQKPGKAPKLLIYGASSLQSGVPSRFSGSGSGTDFTLTISSLQPEDFATYYCQQSYSTPWTFGPGTKVDIKR | binds | binds | – | – | –
Polypeptide No. 199 (scFv, V domains shown, scFv) VH: QVQLVQSGAEVKKPGASVKVSCKASGDTFTGYHIHWVRQAPGQGLEWMGWMNPDSGSTGYAQKFQGRVTMTRDTSTSTVYMELSSLRSEDTAVYYCTTDRLYGDYFDYWGQGTLVTVSS VL: DIQMTQSPSSLSASVGDRVTITCRASQSVSSWLAWYQQKPGKAPKLLIYDASSLQSGVPSRFSGSGSGTDFTLTISSLQPEDFATYYCQQANSFPFTFGPGTKVDIKR | binds | no binding | – | – | –
Polypeptide No. 197 (scFv, V domains shown, scFv) VH: QVQLVQSGAEVKKPGASVKVSCKASGYTLTNNWMHWVRQAPGQGLEWMGWMNPNSGNTGYAQKFQGRVTMTRDTSTSTVYMELSSLRSEDTAVYYCATATADDAFDIWGQGTMVTVSS VL: DIQMTQSPSSLSASVGDRVTITCRASQSISTWLAWYQQKPGKAPKLLIYGASSLQSGVPSRFSGSGSGTDFTLTISSLQPEDFATYYCQQSYDIPITFGPGTKVDIKR | binds | binds | – | – | –
Polypeptide No. 92 (scFv, V domains shown, scFv) VH: QVQLVQSGAEVKKPGASVKVSCKASGYTFTNHYMHWVRQAPGQGLEWMGIINPSGGSTSYAQKFQGRVTMTRDTSTSTVYMELSSLRSEDTAVYYCASAEVGATHYGMDVWGQGTTVTVSS VL: DIVMTQSPLSLPVTPGEPASISCRSSQSLLHSNGYNYLDWYLQKPGQSPQLLIYAASSLQSGVPDRFSGSGSGTDFTLKISRVEAEDVGVYYCMQALHPPTFGQGTKVEIKR | – | – | binds | 2 to 10 | 2 to 10
Polypeptide No. 96 (scFv, V domains shown, scFv) VH: QVQLVQSGAEVKKPGASVKVSCKASGGTFSSYAISWVRQAPGQGLEWMGWMNPSSANTGYAQKFQGRVTMTRDTSTSTVYMELSSLRSEDTAVYYCAKDEMELLTAFDIWGQGTMVTVSS VL: DIQMTQSPSSLSASVGDRVTITCRASQSIGSWLAWYQQKPGKAPKLLIYGVSTLHSGVPSRFSGSGSGTDFTLTISSLQPEDFATYYCQQSYSTPPTFGQGTKLEIKR | – | – | binds | > 30 | > 30
Polypeptide No. 187 (scFv, V domains shown, scFv) VH: EVQLLESGGGLVQPGGSLRLSCAASGFTFSSYDMHWVRQAPGKGLEWVSSISSSSSYIYYADSVKGRFTISRDNSKNTLYLQMNSLRAEDTAVYYCARDIDDVAGDYWGQGTLVTVSS VL: DIQMTQSPSSLSASVGDRVTITCQASQDISNYLNWYQQKPGKAPKLLIYGASSLQSGVPSRFSGSGSGTDFTLTISSLQPEDFATYYCQQSYSTPFTFGQGTKLEIKR | binds | binds | – | – | –
Polypeptide No. 194 (scFv, V domains shown, scFv) VH: QVQLVQSGAEVKKPGASVKVSCKASGVTFSNSGINWVRQAPGQGLEWMGWMNPASGDTGYAQKFQGRVTMTRDTSTSTVYMELSSLRSEDTAVYYCARGEYGAEYFQHWGQGTLVTVSS VL: DIQMTQSPSSLSASVGDRVTITCRASQSISSWLAWYQQKPGKAPKLLIYDASSLESGVPSRFSGSGSGTDFTLTISSLQPEDFATYYCQQSHSLPPTFGQGTRLEIKR | binds | binds | – | – | –
Polypeptide No. 93 (scFv, V domains shown, scFv) VH: QVQLVQSGAEVKKPGASVKVSCKASGYSFTNYDISWVRQAPGQGLEWMGWVNPNSGNTGYAQKFQGRVTMTRDTSTSTVYMELSSLRSEDTAVYYCAKDAPYYYDSSGYYGVFDYWGQGTLVTVSS VL: DIVMTQSPLSLPVTPGEPASISCRSSQSLLHSNGYNYLDWYLQKPGQSPQLLIYAASSLQSGVPDRFSGSGSGTDFTLKISRVEAEDVGVYYCMQALQTPLTFGQGTRLEIKR | – | – | binds | 2 to 10 | 2 to 10
Polypeptide No. 94 (scFv, V domains shown, scFv) VH: QVQLVQSGAEVKKPGASVKVSCKASGYTFTTYDINWVRQAPGQGLEWMGWISGYNGNTGYAQKFQGRVTMTRDTSTSTVYMELSSLRSEDTAVYYCAKDMGYGDYPDAFDIWGQGTMVTVSS VL: DIVMTQSPLSLPVTPGEPASISCRSSQSLLHSNGYNYLDWYLQKPGQSPQLLIYAASTLQSGVPDRFSGSGSGTDFTLKISRVEAEDVGVYYCMQALQIPITFGQGTKVEIKR | – | – | binds | 2 to 10 | 10 to 30
Polypeptide No. 95 (scFv, V domains shown, scFv) VH: QVQLVQSGAEVKKPGSSVKVSCKASGYSFTTYDINWVRQAPGQGLEWMGRMNPNSGNTGYAQKFQGRVTITADESTSTAYMELSSLRSEDTAVYYCARVVHGMDVWGQGTTVTVSS VL: not shown | – | – | binds | 2 to 10 | 2 to 10
Polypeptide No. 97 (scFv, V domains shown, scFv) VH: EVQLLESGGGLVQPGGSLRLSCAASGFTFRSYWMTWVRQAPGKGLEWVSVISGSGDNTYYADSVKGRFTISRDNSKNTLYLQMNSLRAEDTAVYYCARETTWGMDVWGQGTTVTVSS VL: DIQMTQSPSSLSASVGDRVTITCRASQSISSYLNWYQQKPGKAPKLLIYDASNLETGVPSRFSGSGSGTDFTLTISSLQPEDFATYYCQQSSIIPLTFGGGTKVEIKR | – | – | binds | 10 to 30 | 2 to 10
Polypeptide No. 196 (scFv, V domains shown, scFv) VH: QVQLVQSGAEVKKPGASVKVSCKASGYTLTNYYMHWVRQAPGQGLEWMGWISPTDGKTKYAQKFQGRVTMTRDTSTSTVYMELSSLRSEDTAVYYCTTDLLGDWFDPWGQGTLVTVSS VL: DIQMTQSPSSLSASVGDRVTITCRASRSIRSYLNWYQQKPGKAPKLLIYDASNLETGVPSRFSGSGSGTDFTLTISSLQPEDFATYYCQQSYNTPWTFGQGTKVEIKR | no binding | binds | – | – | –
Polypeptide No. 195 (scFv, V domains shown, scFv) VH: QVQLVQSGAEVKKPGASVKVSCKASGYTFTNSYIHWVRQAPGQGLEWMGIINPSGDSTTYAQKFQGRVTMTRDTSTSTVYMELSSLRSEDTAVYYCAKPTTGDGMDVWGQGTTVTVSS VL: DIQMTQSPSSLSASVGDRVTITCRASQGISNWLAWYQQKPGKAPKLLIYDASNLETGVPSRFSGSGSGTDFTLTISSLQPEDFATYYCQQSYSTPLTFGGGTKVEIKR | binds | binds | – | – | –
Polypeptide No. 198 (scFv, V domains shown, scFv) VH: EVQLLESGGGLVQPGGSLRLSCAASGFTFSTFWMSWVRQAPGKGLEWVATISYDGSNQYYADSVKGRFTISRDNSKNTLYLQMNSLRAEDTAVYYCARLELHEGRFDYWGQGTLVTVSS VL: DIQMTQSPSSLSASVGDRVTITCRASQSISSYLNWYQQKPGKAPKLLIYDASNLETGVPSRFSGSGSGTDFTLTISSLQPEDFATYYCQQANSFPFTFGPGTKVDIKR | binds | no binding | – | – | –
Polypeptide No. 188 (scFv, V domains shown, scFv) VH: EVQLLESGGGLVQPGGSLRLSCAASGFTFSSYGMHWVRQAPGKGLEWVSYTSSSSSTIYYADSVKGRFTISRDNSKNTLYLQMNSLRAEDTAVYYCARGNVGDNWNDDEAFLGWGQGTLVTVSS VL: DIQMTQSPSSLSASVGDRVTITCQASQDISNYLNWYQQKPGKAPKLLIYDASNLETGVPSRFSGSGSGTDFTLTISSLQPEDFATYYCQQTYDTPYTFGQGTKLEIKR | binds | binds | – | – | –
Polypeptide No. 200 (scFv, V domains shown, scFv) VH: QVQLVQSGAEVKKPGASVKVSCKASGYTFTDYYMHWVRQAPGQGLEWMGWMNPNSGNTGYAQKFQGRVTMTRDTSTSTVYMELSSLRSEDTAVYYCAADDTKSPYGMDVWGQGTMVTVSS VL: DIQMTQSPSSLSASVGDRVTITCQASQDISNYLNWYQQKPGKAPKLLIYEASSLQSGVPSRFSGSGSGTDFTLTISSLQPEDFATYYCQQTYSPPPTFGQGTKLEIKR | binds | no binding | – | – | –
Polypeptide No. 190 (scFv, V domains shown, scFv) VH: EVQLLESGGGLVQPGGSLRLSCAASGFTFSSSWMHWVRQAPGKGLEWVSTINTNGDAAYYADSVKGRFTISRDNSKNTLYLQMNSLRAEDTAVYYCARDTVLDDYGDYDDYGMDVWGQGTTVTVSS VL: EIVMTQSPATLSVSPGERATLSCRASQSVSSSYLAWYQQKPGQAPRLLIYGASTRAAGIPARFSGSGSGTEFTLTISSLQSEDFAVYYCQQYGSSPFTFGPGTKVDIKR | binds | binds | – | – | –
